Laboratory results reported in publication PMC7440162 (Cell, 2020).
Each block holds one binder with its values, some of them ahead of it.

Tests used:
Assay in all cases: SPR
[1] = molecular target: T1, PTPRS ECD-Fc (human, UniProt Q13332 30-1282)
T1 sequence: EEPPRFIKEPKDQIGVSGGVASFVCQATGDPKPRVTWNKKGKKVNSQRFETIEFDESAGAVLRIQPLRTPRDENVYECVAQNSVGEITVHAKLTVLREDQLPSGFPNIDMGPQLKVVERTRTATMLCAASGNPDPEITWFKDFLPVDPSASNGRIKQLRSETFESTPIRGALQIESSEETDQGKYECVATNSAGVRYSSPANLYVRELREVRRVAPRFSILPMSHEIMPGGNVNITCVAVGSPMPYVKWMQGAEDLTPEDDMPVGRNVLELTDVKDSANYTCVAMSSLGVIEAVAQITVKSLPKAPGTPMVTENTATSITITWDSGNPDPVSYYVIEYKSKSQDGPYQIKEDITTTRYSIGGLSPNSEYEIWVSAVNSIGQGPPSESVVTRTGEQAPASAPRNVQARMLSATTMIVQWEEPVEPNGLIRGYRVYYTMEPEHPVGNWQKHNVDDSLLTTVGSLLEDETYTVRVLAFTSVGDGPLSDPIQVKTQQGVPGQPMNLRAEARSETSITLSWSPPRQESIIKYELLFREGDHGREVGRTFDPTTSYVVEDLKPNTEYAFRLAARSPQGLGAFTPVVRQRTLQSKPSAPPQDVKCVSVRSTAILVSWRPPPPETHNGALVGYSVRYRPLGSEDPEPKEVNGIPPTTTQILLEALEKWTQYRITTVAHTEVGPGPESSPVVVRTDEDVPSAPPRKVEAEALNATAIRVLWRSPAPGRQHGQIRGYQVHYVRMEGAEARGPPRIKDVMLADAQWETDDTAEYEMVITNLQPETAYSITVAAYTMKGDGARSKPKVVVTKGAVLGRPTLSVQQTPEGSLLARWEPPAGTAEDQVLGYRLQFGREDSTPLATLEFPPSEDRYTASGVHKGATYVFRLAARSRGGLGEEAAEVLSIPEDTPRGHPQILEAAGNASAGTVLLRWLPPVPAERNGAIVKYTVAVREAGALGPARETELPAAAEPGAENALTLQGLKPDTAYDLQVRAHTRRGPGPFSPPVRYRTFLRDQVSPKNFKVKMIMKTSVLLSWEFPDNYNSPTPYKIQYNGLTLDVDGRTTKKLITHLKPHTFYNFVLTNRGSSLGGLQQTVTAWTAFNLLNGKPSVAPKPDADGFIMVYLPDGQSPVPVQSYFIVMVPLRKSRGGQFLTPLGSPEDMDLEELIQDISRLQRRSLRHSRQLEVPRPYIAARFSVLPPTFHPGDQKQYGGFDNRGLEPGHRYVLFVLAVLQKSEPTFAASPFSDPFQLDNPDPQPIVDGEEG

[2] = molecular target: T2, PRTG ECD-Fc (human, UniProt Q2VWP7 36-949)
T2 sequence: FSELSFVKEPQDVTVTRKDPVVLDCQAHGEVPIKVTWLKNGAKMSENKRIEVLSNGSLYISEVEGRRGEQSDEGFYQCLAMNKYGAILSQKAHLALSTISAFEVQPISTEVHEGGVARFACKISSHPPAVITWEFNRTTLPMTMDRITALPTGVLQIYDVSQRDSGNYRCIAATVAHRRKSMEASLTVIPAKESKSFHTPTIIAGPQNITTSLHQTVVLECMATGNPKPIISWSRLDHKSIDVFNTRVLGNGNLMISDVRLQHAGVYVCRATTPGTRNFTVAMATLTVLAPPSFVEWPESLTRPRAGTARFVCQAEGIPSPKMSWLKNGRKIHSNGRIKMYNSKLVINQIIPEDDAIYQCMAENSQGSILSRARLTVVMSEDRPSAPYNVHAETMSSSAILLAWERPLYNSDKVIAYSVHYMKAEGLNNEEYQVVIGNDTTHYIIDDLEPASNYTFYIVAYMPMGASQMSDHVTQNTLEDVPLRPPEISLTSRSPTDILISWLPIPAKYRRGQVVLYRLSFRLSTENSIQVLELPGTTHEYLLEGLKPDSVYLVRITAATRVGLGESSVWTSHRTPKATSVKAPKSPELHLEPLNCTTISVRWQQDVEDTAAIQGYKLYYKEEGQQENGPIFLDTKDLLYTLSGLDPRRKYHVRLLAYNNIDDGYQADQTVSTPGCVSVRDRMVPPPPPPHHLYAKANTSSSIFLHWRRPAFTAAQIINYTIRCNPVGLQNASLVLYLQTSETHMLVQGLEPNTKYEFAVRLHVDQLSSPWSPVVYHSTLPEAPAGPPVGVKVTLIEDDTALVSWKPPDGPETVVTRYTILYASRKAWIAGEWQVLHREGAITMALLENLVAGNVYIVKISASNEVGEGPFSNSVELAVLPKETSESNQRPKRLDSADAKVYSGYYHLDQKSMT

[3] = molecular target: T3, human ISLR2 ECD-Fc (human, UniProt Q6UXK2 19-589, biotin on the AviTag (as SPR ligand))
T3 sequence: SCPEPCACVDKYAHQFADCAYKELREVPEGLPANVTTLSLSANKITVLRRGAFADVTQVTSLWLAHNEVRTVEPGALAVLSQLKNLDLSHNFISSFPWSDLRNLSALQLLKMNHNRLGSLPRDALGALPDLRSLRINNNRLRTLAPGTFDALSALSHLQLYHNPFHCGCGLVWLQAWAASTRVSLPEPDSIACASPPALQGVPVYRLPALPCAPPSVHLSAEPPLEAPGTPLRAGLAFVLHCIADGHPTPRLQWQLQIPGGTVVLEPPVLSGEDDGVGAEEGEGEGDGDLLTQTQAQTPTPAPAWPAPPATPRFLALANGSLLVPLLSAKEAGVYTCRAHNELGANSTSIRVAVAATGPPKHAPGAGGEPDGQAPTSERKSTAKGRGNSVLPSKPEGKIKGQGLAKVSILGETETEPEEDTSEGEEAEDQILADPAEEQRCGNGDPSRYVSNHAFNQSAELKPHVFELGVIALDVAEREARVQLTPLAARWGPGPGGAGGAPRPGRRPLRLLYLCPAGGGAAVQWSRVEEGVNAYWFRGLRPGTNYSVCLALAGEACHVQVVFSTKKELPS

B2: ICAM5 ECD-Fc (Fc fusion)
chain: EPFWADLQPRVAFVERGGSLWLNCSTNCPRPERGGLETSLRRNGTQRGLRWLARQLVDIREPETQPVCFFRCARRTLQARGLIRTFQRPDRVELMPLPPWQPVGENFTLSCRVPGAGPRASLTLTLLRGAQELIRRSFAGEPPRARGAVLTATVLARREDHGANFSCRAELDLRPHGLGLFENSSAPRELRTFSLSPDAPRLAAPRLLEVGSERPVSCTLDGLFPASEARVYLALGDQNLSPDVTLEGDAFVATATATASAEQEGARQLVCNVTLGGENRETRENVTIYSFPAPLLTLSEPSVSEGQMVTVTCAAGAQALVTLEGVPAAVPGQPAQLQLNATENDDRRSFFCDATLDVDGETLIKNRSAELRVLYAPRLDDSDCPRSWTWPEGPEQTLRCEARGNPEPSVHCARSDGGAVLALGLLGPVTRALSGTYRCKAANDQGEAVKDVTLTVEYAPALDSVGCPERITWLEGTEASLSCVAHGVPPPDVICVRSGELGAVIEGLLRVAREHAGTYRCEATNPRGSAAKNVAVTVEYGPRFEEPSCPSNWTWVEGSGRLFSCEVDGKPQPSVKCVGSGGATEGVLLPLAPPDPSPRAPRIPRVLAPGIYVCNATNRHGSVAKTVVVSAESPPEMDESTCPSHQTWLEGAEASALACAARGRPSPGVRCSREGIPWPEQQRVSREDAGTYHCVATNAHGTDSRTVTVGVEYRPVVAELAASPPGGVRPGGNFTLTCRAEAWPPAQISWRAPPGALNIGLSSNNSTLSVAGAMGSHGGEYECAATNAHGRHARRITVRVAGPW
modifications: biotin on the AviTag (as SPR ligand)
binding result [2]: binds

B3: LTF-Fc (Fc fusion)
chain: GRRRSVQWCAVSQPEATKCFQWQRNMRKVRGPPVSCIKRDSPIQCIQAIAENRADAVTLDGGFIYEAGLAPYKLRPVAAEVYGTERQPRTHYYAVAVVKKGGSFQLNELQGLKSCHTGLRRTAGWNVPIGTLRPFLNWTGPPEPIEAAVARFFSASCVPGADKGQFPNLCRLCAGTGENKCAFSSQEPYFSYSGAFKCLRDGAGDVAFIRESTVFEDLSDEAERDEYELLCPDNTRKPVDKFKDCHLARVPSHAVVARSVNGKEDAIWNLLRQAQEKFGKDKSPKFQLFGSPSGQKDLLFKDSAIGFSRVPPRIDSGLYLGSGYFTAIQNLRKSEEEVAARRARVVWCAVGEQELRKCNQWSGLSEGSVTCSSASTTEDCIALVLKGEADAMSLDGGYVYTAGKCGLVPVLAENYKSQQSSDPDPNCVDRPVEGYLAVAVVRRSDTSLTWNSVKGKKSCHTAVDRTAGWNIPMGLLFNQTGSCKFDEYFSQSCAPGSDPRSNLCALCIGDEQGENKCVPNSNERYYGYTGAFRCLAENAGDVAFVKDVTVLQNTDGNNNEAWAKDLKLADFALLCLDGKRKPVTEARSCHLAMAPNHAVVSRMDKVERLKQVLLHQQAKFGRNGSDCPDKFCLFQSETKNLLFNDNTECLARLHGKTTYEKYLGPQYVAGITNLKKCSTSPLLEACEFLRK
modifications: biotin on the AviTag (as SPR ligand)
binding result [2]: binds

Other lines, results leading:

binding result [1]: binds
B1: IL1RAPL1 ECD-Fc (Fc fusion)
chain: LKVVTKRGSADGCTDWSIDIKKYQVLVGEPVRIKCALFYGYIRTNYSLAQSAGLSLMWYKSSGPGDFEEPIAFDGSRMSKEEDSIWFRPTLLQDSGLYACVIRNSTYCMKVSISLTVGENDTGLCYNSKMKYFEKAELSKSKEISCRDIEDFLLPTREPEILWYKECRTKTWRPSIVFKRDTLLIREVREDDIGNYTCELKYGGFVVRRTTELTVTAPLTDKPPKLLYPMESKLTIQETQLGDSANLTCRAFFGYSGDVSPLIYWMKGEKFIEDLDENRVWESDIRILKEHLGEQEVSISLIVDSVEEGDLGNYSCYVENGNGRRHASVLLHKRELMYT
modifications: biotin on the AviTag (as SPR ligand)

binding result [2]: binds
binding result [3]: binds
B4: WFIKKN2-Fc (Fc fusion)
chain: LPPIRYSHAGICPNDMNPNLWVDAQSTCRRECETDQECETYEKCCPNVCGTKSCVAARYMDVKGKKGPVGMPKEATCDHFMCLQQGSECDIWDGQPVCKCKDRCEKEPSFTCASDGLTYYNRCYMDAEACSKGITLAVVTCRYHFTWPNTSPPPPETTMHPTTASPETPELDMAAPALLNNPVHQSVTMGETVSFLCDVVGRPRPEITWEKQLEDRENVVMRPNHVRGNVVVTNIAQLVIYNAQLQDAGIYTCTARNVAGVLRADFPLSVVRGHQAAATSESSPNGTAFPAAECLKPPDSEDCGEEQTRWHFDAQANNCLTFTFGHCHRNLNHFETYEACMLACMSGPLAACSLPALQGPCKAYAPRWAYNSQTGQCQSFVYGGCEGNGNNFESREACEESCPFPRGNQRCRACKPRQKLVTSFCRSDFVILGRVSELTEEPDSGRALVTVDEVLKDEKMGLKFLGQEPLEVTLLHVDWACPCPNVTVSEMPLIIMGEVDGGMAMLRPDSFVGASSARRVRKLREVMHKKTCDVLKEFLGLH
modifications: biotin on the AviTag (as SPR ligand)
